Numbered stars: 1 amine (or outer) side, 2 acyl side, 3 side chain; on linkers, the order of the positions; unused ones are H or OH. Square brackets hold non-standard residues; d marks the D form. Side chains are listed from the residue outwards. Ends that are not written are not given here. * marks the point of attachment. TtdSuc = 4-[3-[2-[2-(3-aminopropoxy)ethoxy]ethoxy]propylamino]-4-oxobutanoyl; C20 diacid = O=C(O)CCCCCCCCCCCCCCCCCCC(=O)*; γGlu = O=C(O)[C@H](CCC(=O)[*:2])N[*:1]; Desaminohistidyl = O=C(CCc1c[nH]cn1)*; εLys = N[C@@H](CCCCN[*:1])C(=O)[*:2]; Trx = NC[C@H]1CC[C@H](C(=O)O)CC1; PEG4 = NCCOCCOCCOCCOCCC(=O)O; AEEA = NCCOCCOCC(=O)O; Aib = CC(C)(N)C(=O)O; Inp = O=C(O)C1CCNCC1
Assays:
human GLP-1 receptor [1] = molecular target: T1, human GLP-1 receptor (human, UniProt P43220 24-463); experiment: cell-based or functional assay
human GLP-1 receptor [2] = molecular target: T1, human GLP-1 receptor; experiment: competitive binding (SPA): displacement of 125I-GLP-1(7-36)NH2 from BHK cell membranes with human GLP-1 receptor; low HSA (max. 0.001% final)
human GLP-1 receptor [3] = molecular target: T1, human GLP-1 receptor; experiment: competitive binding (SPA): displacement of 125I-GLP-1(7-36)NH2 from BHK cell membranes with human GLP-1 receptor; high HSA (2.0% final)

B1: N{Alpha}([Imp … (peptide)
peptide: [Desaminohistidyl][Aib]EGTFTSDVSSYLEEQAAREFIAWLVRGRGK([AEEA-AEEA-AEEA-AEEA-γGlu-Trx-C20 diacid])GGSK([AEEA-AEEA-AEEA-AEEA-γGlu-Trx-C20 diacid])
notes: Double-acylated, C-terminally extended GLP-1 analogue made by SPPS; also called 18
B1 was tested, and the “EC50 (pM), in vitro potency, CRE luciferase reporter gene assay in BHK cells expressing the human GLP-1 receptor” value (shortened to “EC50 (pM), in vitro potency”) (human GLP-1 receptor [1]) was 13 pM, the IC50 (human GLP-1 receptor [2]) was 2.3 nM and the IC50 (human GLP-1 receptor [3]) was 219 nM.

B2: N{Alpha}([Imp … (peptide)
peptide: [Desaminohistidyl][Aib]EGTFTSDVSSYLEEQAAREFIAWLVRGRGK([AEEA-AEEA-AEEA-AEEA-γGlu-C20 diacid])GGSK([AEEA-AEEA-AEEA-AEEA-γGlu-C20 diacid])
notes: Double-acylated, C-terminally extended GLP-1 analogue made by SPPS; also called 20
In the case of B2, the “EC50 (pM), in vitro potency” value (human GLP-1 receptor [1]) is reported as 8.4 pM, the IC50 (human GLP-1 receptor [2]) is reported as 4.1 nM and the IC50 (human GLP-1 receptor [3]) is reported as 270 nM.

B3: N{Alpha}([Aib8,Glu22,Arg26,Arg34]-GLP-1-(7-37)-peptidyl)-N{Epsilon}[2-[2-[2-[[2-[2-[2-[[2-[2-[2-[[2-[2-[2-[[2-[2-[2-[[2-[2-[2-[[(4S)-4-carboxy-4-[[4-[(19-carbox … (peptide)
peptide: H[Aib]EGTFTSDVSSYLEEQAAREFIAWLVRGRGK([AEEA-AEEA-AEEA-AEEA-AEEA-AEEA-γGlu-Trx-C20 diacid])GGSK([AEEA-AEEA-AEEA-AEEA-AEEA-AEEA-γGlu-Trx-C20 diacid])
notes: Double-acylated, C-terminally extended GLP-1 analogue made by SPPS; also called 24
With B3 the “EC50 (pM), in vitro potency” value (human GLP-1 receptor [1]) was 7 pM, the IC50 (human GLP-1 receptor [2]) was 0.67 nM and the IC50 (human GLP-1 receptor [3]) was 84 nM.

B4: N{Alpha}([AAib8,Glu22,Arg26,Arg34]-GLP-1-(7-37)-peptidyl)-N{Epsilon}[2-[2-[3-[2-[2-[3-[[(4S)-4-carboxy-4-(19-carboxynonadecanoylamino)butanoyl]amino]propoxy]eth … (peptide)
peptide: HXEGTFTSDVSSYLEEQAAREFIAWLVRGRGKGGSK
modifications: Aib at position 8; N-epsilon of Lys38 and of Lys42 each acylated with C20 diacid (19-carboxynonadecanoyl)-gGlu-TotaGlyc (GLP-1(7-37) numbering = sequence-listing position + 6)
notes: Double-acylated, C-terminally extended GLP-1 analogue made by SPPS; The printed name has 'AAib8' (typographic slip for Aib8); also called 22
B4 was tested, and the “EC50 (pM), in vitro potency” value (human GLP-1 receptor [1]) was 10 pM, the IC50 (human GLP-1 receptor [2]) was 0.82 nM and the IC50 (human GLP-1 receptor [3]) was 194 nM.

B5: N{Alpha}([Aib8,Glu22,Arg26,Arg34]-GLP-1-(7-37)-peptidyl)-N{Epsilon}[4-[2-[2-[2-[[(4S)-4-carboxy-4-[[4-[(19-carboxynonadecanoylamino)methyl]cyclohexanecarbonyl]a … (peptide)
peptide: HXEGTFTSDVSSYLEEQAAREFIAWLVRGRGKGGSK
modifications: Aib at position 8; N-epsilon of Lys38 and of Lys42 each acylated with C20 diacid (19-carboxynonadecanoyl)-Trx-gGlu-DooaSuc (GLP-1(7-37) numbering = sequence-listing position + 6)
notes: Double-acylated, C-terminally extended GLP-1 analogue made by SPPS; also called 23
B5 was tested, and the “EC50 (pM), in vitro potency” value (human GLP-1 receptor [1]) was 22 pM, the IC50 (human GLP-1 receptor [2]) was 1.4 nM and the IC50 (human GLP-1 receptor [3]) was 201 nM.

B6: N{Epsilon-36}-[2-[2-[2-[[2-[2-[2-[[(4S)-4-carboxy-4-[[4-[(19-carboxynonadecanoylamino)methyl]cyclohexanecarbonyl]amino]butanoyl]amino]ethoxy]ethoxy]acetyl]amino … (peptide)
peptide: H[Aib]EGTFTSDVSSYLEEQAAREFIAWLVRGK([AEEA-AEEA-γGlu-Trx-C20 diacid])GAESPK([AEEA-AEEA-γGlu-Trx-C20 diacid])
notes: Double-acylated, C-terminally extended GLP-1 analogue made by SPPS; also called 14
In the case of B6, the “EC50 (pM), in vitro potency” value (human GLP-1 receptor [1]) is reported as 22 pM, the IC50 (human GLP-1 receptor [2]) is reported as 1.5 nM and the IC50 (human GLP-1 receptor [3]) is reported as 530 nM.

B7: N{Epsilon-36}-[2-[2-[2-[[2-[2-[2-[[(4S)-4-carboxy-4-[[4-[(19-carboxynonadecanoylamino)methyl]cyclohexanecarbonyl]amino]butanoyl]amino]ethoxy]ethoxy]acetyl]amino … (peptide)
peptide: H[Aib]EGTFTSDVSSYLEEQAAREFIAWLVRGK([AEEA-AEEA-γGlu-Trx-C20 diacid])GPASEK([AEEA-AEEA-γGlu-Trx-C20 diacid])
notes: Double-acylated, C-terminally extended GLP-1 analogue made by SPPS; also called 15
B7 was tested, and the “EC50 (pM), in vitro potency” value (human GLP-1 receptor [1]) was 20 pM, the IC50 (human GLP-1 receptor [2]) was 1.6 nM and the IC50 (human GLP-1 receptor [3]) was 928 nM.

B8: N{Alpha}([Aib8,Glu22,Arg26,Arg34]-GLP-1-(7-37)-peptidyl)-N{Epsilon}[2-[2-[2-[[2-[2-[2-[[2-[2-[2-[[2-[2-[2-[[(4S)-4-carboxy-4-(19-carboxynonadecanoylamino)butano … (peptide)
peptide: H[Aib]EGTFTSDVSSYLEEQAAREFIAWLVRGRGK([AEEA-AEEA-AEEA-AEEA-γGlu-C20 diacid])GGSK([AEEA-AEEA-AEEA-AEEA-γGlu-C20 diacid])
notes: Double-acylated, C-terminally extended GLP-1 analogue made by SPPS; also called 19
In the case of B8, the “EC50 (pM), in vitro potency” value (human GLP-1 receptor [1]) is reported as 6.2 pM, the IC50 (human GLP-1 receptor [2]) is reported as 2.4 nM and the IC50 (human GLP-1 receptor [3]) is reported as 142 nM.

B9: N{Alpha}([Aib8,Glu22,Arg26,Arg34]-GLP-1-(7-37)-peptidyl)-N{Epsilon}[2-[2-[2-[[2-[2-[2-[[2-[2-[2-[[2-[2-[2-[[(2S)-2-amino-6-[[(2S)-2-amino-6-(19-carboxynonadecan … (peptide)
peptide: H[Aib]EGTFTSDVSSYLEEQAAREFIAWLVRGRGK([AEEA-AEEA-AEEA-AEEA-εLys-εLys-C20 diacid])GGSK([AEEA-AEEA-AEEA-AEEA-εLys-εLys-C20 diacid])
notes: Double-acylated, C-terminally extended GLP-1 analogue made by SPPS; also called 25
B9 was tested, and the “EC50 (pM), in vitro potency” value (human GLP-1 receptor [1]) was 10 pM, the IC50 (human GLP-1 receptor [2]) was 0.22 nM and the IC50 (human GLP-1 receptor [3]) was 38 nM.

B10: N{Alpha}([Aib8,Glu22,Arg26,Arg34]-GLP-1-(7-37)-peptidyl)-N{Epsilon}3-[2-[2-[2-[2-[[(4S)-4-carboxy-4-[[4-[(19-carboxynonadecanoylamino)methyl]cyclohexanecarbonyl … (peptide)
peptide: H[Aib]EGTFTSDVSSYLEEQAAREFIAWLVRGRGK([PEG4-γGlu-Trx-C20 diacid])GGSK([PEG4-γGlu-Trx-C20 diacid])
notes: Double-acylated, C-terminally extended GLP-1 analogue made by SPPS; also called 10
With B10 the “EC50 (pM), in vitro potency” value (human GLP-1 receptor [1]) was 27 pM, the IC50 (human GLP-1 receptor [2]) was 1.3 nM and the IC50 (human GLP-1 receptor [3]) was 123 nM.

B11: N{Alpha}([Aib8,Glu22,Arg26,Arg34]-GLP-1-(7-37)-peptidyl)-N{Epsilon}[2-[2-[2-[[2-[2-[2-[[2-[2-[2-[[2-[2-[2-[[2-[2-[2-[[(2S)-2-amino-6-[[(2S)-2-amino-6-(19-carbox … (peptide)
peptide: H[Aib]EGTFTSDVSSYLEEQAAREFIAWLVRGRGK([AEEA-AEEA-AEEA-AEEA-AEEA-εLys-εLys-C20 diacid])GGSK([AEEA-AEEA-AEEA-AEEA-AEEA-εLys-εLys-C20 diacid])
notes: Double-acylated, C-terminally extended GLP-1 analogue made by SPPS; also called 27
In the case of B11, the “EC50 (pM), in vitro potency” value (human GLP-1 receptor [1]) is reported as 4.4 pM, the IC50 (human GLP-1 receptor [2]) is reported as 0.08 nM and the IC50 (human GLP-1 receptor [3]) is reported as 30 nM.

B12: N{Alpha}([Aib8,Glu22,Arg26,Arg34]-GLP-1-(7-37)-peptidyl)-N{Epsilon}[4-[3-[2-[2-[3-[[(4S)-4-carboxy-4-[[1-(19-carboxynonadecanoyl)piperidine-4-carbonyl]amino]but … (peptide)
peptide: H[Aib]EGTFTSDVSSYLEEQAAREFIAWLVRGRGK([TtdSuc-γGlu-Inp-C20 diacid])GGSK([TtdSuc-γGlu-Inp-C20 diacid])
notes: Double-acylated, C-terminally extended GLP-1 analogue made by SPPS; also called 21
With B12 the “EC50 (pM), in vitro potency” value (human GLP-1 receptor [1]) was 19 pM, the IC50 (human GLP-1 receptor [2]) was 1.3 nM and the IC50 (human GLP-1 receptor [3]) was 177 nM.

B13: N{Alpha}([Aib8,Glu22,Arg26,Arg34]-GLP-1-(7-37)-peptidyl)-N{Epsilon}[2-[2-[2-[[2-[2-[2-[[2-[2-[2-[[2-[2-[2-[[2-[2-[2-[[2-[2-[2-[[(2S)-2-amino-6-[[(2S)-2-amino-6- … (peptide)
peptide: H[Aib]EGTFTSDVSSYLEEQAAREFIAWLVRGRGK([AEEA-AEEA-AEEA-AEEA-AEEA-AEEA-εLys-εLys-C20 diacid])GGSK([AEEA-AEEA-AEEA-AEEA-AEEA-AEEA-εLys-εLys-C20 diacid])
notes: Double-acylated, C-terminally extended GLP-1 analogue made by SPPS; also called 28
B13 was tested, and the “EC50 (pM), in vitro potency” value (human GLP-1 receptor [1]) was 3.4 pM, the IC50 (human GLP-1 receptor [2]) was 0.05 nM and the IC50 (human GLP-1 receptor [3]) was 30 nM.
